# According to US20190224101A1:
# B1: 3F antibody (antibody, V domains shown)
# VH: QMQLVQSGAEVKKPGASVKVSCKASGYTFTDYYIHWVRQAPGQGLEWMGWINPNSGAPEFAQRFQGRVSMTRDASINTTYMELSGLRSEDTAVYYCVKGLEHAAGSAIFDRWGQGTMVTVSS
# VL: QTVVTQEPSFSVSPGGTVTLTCGLTSGSVSTSHFPSWYQQTPGQAPRTLIYFKDTRSSGVPDRFSGSILGNKAALTITGAQADDESDYYCALSMGSGIWVFGGGTKLTVL
# B2: 10F antibody (antibody, V domains shown)
# VH: QVQLVESGGGLIQPGGSLRLSCVASGFTVSSSFMSWVRLAPGKGLEWVALAYSGGNTYYADSVKGRFTVSRDDSSNTLYLQMNSLRAEDTAVYYCSCEGKAVSGSRDLHFEFWSPGTLVTVSS
# VL: SYELTQAPSLSVSPGQTANIICSGDNLRTKYVSWYQQKPGQAPVLVIYNDNDRPSGIPERFSGTNSGNTAALTISRVEAGDEADYYCQVWDSSSDHLIFGGGTKLTVL
# B3: 8F antibody (antibody, V domains shown)
# VH: QVQLVQSGGGVVQPGGSLRLSCAASGFSFNDYAMHWVRQVPGKGLEWVSSISWNSRSTVYAASVEGRFSISRDNSKNSLYLQMNSLRAEDAAVYYCTTDLGVVPAAIYAFDIWGQGTMVTVSS
# VL: DIQMTQSPSVMSASVGDRVNITCRASQGITNWLAWYQQKPGKAPKLLISAASSLQSGVPSRFSGSGSGTDFTLTISSLQPDDFATYYCQQTATFQITFGQGTRLDIK
# B4: 6F antibody (antibody, V domains shown)
# VH: QVQLVESGGGVVRPGGSLRLSCTASGFTFDDHGMSWVRQAPGKGLEWVSTINLNGGSTAYADSVKGRFTISRDNAKNSLYLQMNSLRAEDTAVYYCSTRHLHHWGQGTLVTVSS
# VL: DIVMTQTPLSSPVTLGQPASISCRSSQSLVHSNGNTYLTWLQQRPGQPPRLLIHKISNRFSGVPDRFSGSGAGTDFTLKISRVEAEDVGVYYCVQAKQFPLTFGQGTRLEIK
# B5: mono-scFv-phage No. 3 (scFv, V domains shown)
# VH: B1 VH
# VL: B1 VL
# B6: mono-scFv-phage No. 10 (scFv, V domains shown)
# VH: B2 VH
# VL: B2 VL
# B7: mono-scFv-phage No. 8 (scFv, V domains shown)
# VH: B3 VH
# VL: B3 VL
# B8: mono-scFv-phage No. 6 (scFv, V domains shown)
# VH: B4 VH
# VL: B4 VL
# Target: control cells (Staphylococcus epidermidis), whole cells (Staphylococcus epidermidis)
# Assay: IgG ELISA on control cells
row,Binder,O.D. 450 nm [O.D. 450 nm]
1,B1,-0.0105
2,B2,-0.0248
3,B3,-0.0268
4,B4,0.0114

# Target: Propionibacterium acnes (P. acnes) whole cells, surface antigen not identified (Propionibacterium acnes)
# Assay: mono-scFv-phage ELISA on whole P. acnes
Binder,ELISA O.D. value [O.D.],O.D. 450 nm [O.D. 450 nm]
B5,3.62,3.36
B6,2.07,1.81
B7,2.08,1.82
B8,2.22,1.95

# Target: control cells (Staphylococcus epidermidis), whole cells (Staphylococcus epidermidis)
# Assay: mono-scFv-phage ELISA on control cells
row,Binder,O.D. 450 nm [O.D. 450 nm]
1,B5,0.0002
2,B6,0.0023
3,B7,0.0044
4,B8,0.0041

# Target: Propionibacterium acnes (P. acnes) whole cells, surface antigen not identified (Propionibacterium acnes)
# Assay: IgG ELISA on whole P. acnes
row,Binder,O.D. 450 nm [O.D. 450 nm]
1,B1,0.0149
2,B2,0.00605
3,B3,2.32
4,B4,2.36
